Experimental data taken from patent publication US20210052630A1, “Methods and Compositions for Preventing or Treating Heart Disease” (Macau University of Science and Technology, priority 2019, published 2021).

Tests used:
Assay type in all cases: cell-based, Rat
[1] = tested on: H9C2 cells; assay: Mitochondrial viability assay, H9C2 cells exposed to hypoxia/reoxygenation (H/R) injury; conditions: 300, 100, 30, 3 nM (FIG. 7A/7B)
Method: (§1) H9C2 cell lines were cultured in Dulbecco's Modified Eagle Medium (DMEM) containing 10% FBS and 1% penicillin/streptomycin at humidified atmosphere containing 5% CO2 at 37° C.
(§2) In the cell viability assay or mitochondrial viability assay, exponentially growing cells of H9C2 cell line were plated in 96-well microplate at a density of 5000 cells per well in 100 μL of culture medium and allowed to adhere for 24 h before treatment. […] Subsequently, for cell viability assay, 150 μL dimethyl sulfoxide (DMSO) were added and the optical densities of the resulting solutions were calorimetrically determined at 570 nm using a SpectraMax Paradigm multi-mode microplate reader (Molecular Devices, Sunnyvale, Calif., U.S.A). For mitochondrial viability assay, fluorescence detected at 550 nm excitation and 590 nm emission using SpectraMax Paradigm multi-mode microplate reader. Dose-response curves were obtained and calculated by GraphPad Prism 6 (GraphPad, La Jolla, Calif., USA). Each experiment was carried out for three times and expressed as means±standard deviation.

[2] = tested on: H9C2 cells; assay: MTT cell viability assay, H9C2 cells under H/R injury, RNA transfected with DharmaFECT4; conditions: 300, 100, 30 nM, vs H/R+DharmaFECT4 group, FIG. 11A/11B
Method: FIG. 11A is a bar chart showing the cell viability of H9C2 cells exposed to hypoxia/reoxygenation (H/R) injury after treatment with RNA molecule HC50 at different concentrations, i.e. 300 nM, 100 nM and 30 nM, by transfected with DharmaFECT4 transfection reagent, compared to a control group, a H/R along with DharmaFECT4 treated group in accordance with an example embodiment (mean±SD n=3; **, p<0.01, vs. vehicle H/R+ DharmaFECT4; ####, p<0.0001 vs. vehicle control). […]
as §2

[3] = tested on: H9C2 cells; assay: MTT cell viability assay, H9C2 cells exposed to hypoxia/reoxygenation (H/R) injury; conditions: for cell viability (growth and proliferation of cardiomyocytes) under hypoxia/reoxygenation: 50 nM RNA, vs H/R group, FIG. 3B; for cardioprotective effect (cell viability), concentration series: 100, 50, 25, 12.5 nM, FIG. 4A/4B
Method: as §1
In the cell viability assay or mitochondrial viability assay, exponentially growing cells of H9C2 cell line were plated in 96-well microplate at a density of 5000 cells per well in 100 μL of culture medium and allowed to adhere for 24 h before treatment. For hypoxia, hypoxic treatment was achieved by exposing cells to KRB buffer (composition in: NaCl 115 mM, KCl 4.7 mM, CaCl2 2.5 mM, KH2PO4 1.2 mM, MgSO4 1.2 mM, NaHCO3 24 mM, HEPES 10 mM; pH 7.4) at 37° C. for 3 hr in an oxygen-free hypoxic chamber (Stem Cell Technologies, United States), serial concentrations of RNA molecules obtained in Example 1 were then added to the cells […]. For hypoxia/reoxygenation (H/R), Hypoxic treatment was achieved by exposing cells in glucose-free DMEM under conditions of 94.9% N2/5% CO2/0.1% O2 for 12 hr at a hypoxystation (whitley H35 hypoxystation, Don Whitley Scientific Ltd., England), serial concentrations of RNA molecules obtained in Example 1 and 2 were then added to the cells and reoxygenation by incubating in the normoxic condition (95% air/5% CO2) at 37° C. for 6 hr. After hypoxia or hypoxia/reoxygenation, MTT solution (100 μL per well, 0.5 mg/mL solution) or mitochondrial viability stain solution (follow the manufacture's instruction) was added to each well and incubated for 4 h at 37° C. Subsequently, for cell viability assay, 150 μL dimethyl sulfoxide (DMSO) were added and the optical densities of the resulting solutions were calorimetrically determined at 570 nm using a SpectraMax Paradigm multi-mode microplate reader (Molecular Devices, Sunnyvale, Calif., U.S.A). For mitochondrial viability assay, fluorescence detected at 550 nm excitation and 590 nm emission using SpectraMax Paradigm multi-mode microplate reader. Dose-response curves were obtained and calculated by GraphPad Prism 6 (GraphPad, La Jolla, Calif., USA). Each experiment was carried out for three times and expressed as means±standard deviation.

[4] = tested on: H9C2 cell cytoskeleton; assay: Cytoskeleton imaging (Rhodamine Phalloidin/DAPI, confocal) of H9C2 cells after H/R injury; conditions: 900, 300, 100, 30, 10, 3, 0.3 nM, FIG. 8A/8B
Method: H9C2 cells were plated in p-slide 8 well plate (Ibidi GmbH, Germany) at a density of 10000 cells per well in 200 μL of culture medium and allowed to adhere for 24 h before treatment. Hypoxic treatment was achieved by exposing cells in glucose-free DMEM under conditions of 94.9% N2/5% CO2/0.1% O2 for 12 hr at a hypoxystation (whitley H35 hypoxystation, Don Whitley Scientific Ltd., England), serial concentrations of RNA molecules obtained in Example 2 were then added to the cells and reoxygenation by incubating in the normoxic condition (95% air/5% CO2) at 37° C. for 6 hr. After hypoxia/reoxygenation, cells were stained with Rhodamine Phalloidin and DAPI following the manufacturer's instruction. Images were acquired on a Leica TCS SP8 Confocal Microscopy with a 20× objective.

[5] = tested on: H9C2 cell line; assay: MTT cell viability assay, H9C2 cells exposed to hypoxia injury; conditions: 300 nM RNA, H9C2, hypoxia 3 hr, vs hypoxia group, FIG. 3A

Molecule | cell viability (growth and proliferation of cardiomyocytes) under hypoxia/reoxygenation ([3]; H9C2, H/R) | cardioprotective effect (cell viability), concentration series ([3]; H9C2, H/R) | cell viability (growth and proliferation of cardiomyocytes) under hypoxia [5] | further results
HC50: double-stranded RNA, sense SEQ ID NO: 2 and antisense SEQ ID NO: 234, 19 base pairs (sense GCGGAUGUAGCCAAGUGGA; antisense UCCACUUGGCUACAUCCGC; cholesterol-conjugated double-stranded RNA, conjugate position not given here) |  |  |  | mitochondrial viability, protective effect against H/R injury, concentration series [1]: dose-dependent protective effect against hypoxia/reoxygenation (H/R) injury; cell viability (growth and proliferation of cardiomyocytes), transfected with DharmaFECT4 [2]: promoted the growth and proliferation of cardiomyocytes against hypoxia/reoxygenation (H/R) injury in a dose-dependent manner; cell viability (growth and proliferation of cardiomyocytes), screen of synthesized RNA molecules ([3]; 300 nM, H9C2, H/R, FIG. 5A/5B): effective in promoting the growth and proliferation of cardiomyocytes; cell viability, protective effect against H/R injury, concentration series ([3]; 900, 300, 30, 3, 0.3 nM, H9C2, FIG. 6A/6B): dose-dependent protective effect against hypoxia/reoxygenation (H/R) injury; protective effect on cytoskeleton destruction [4]: significantly relieve cytoskeleton destruction of H9C2 cells caused by hypoxia/reoxygenation (H/R) injury in a dose-dependent manner
GCGGAUGUAGCCAAGUGGAUCAAGGCAGUGGAUUGUGAAUCCACCAUGCGCGGGUUCAAUUCCCGUCGUUCGCCCCA (nucleic acid, expressed or natural sequence, tRNA isolated from Panax ginseng C; A. Mey; 77 mer) GCGGAUGUAGCCAAGUGGAUCAAGGCAGUGGAUUGUGAAUCCACCAUGCGCGGGUUCAAUUCCCGUCGUUCGCCCCA | capable to promote the growth and proliferation of cardiomyocytes | significant cardioprotective effects in a dose-dependent manner |  | 
CGCGGAGUAGAGCAGUUUGGUAGCUCGCAAGGCUCAUAACCUUGAGGUCACGGGUUCAAAUCCUGUCUCCGCAACCA (nucleic acid, expressed or natural sequence, tRNA isolated from Panax ginseng C; A. Mey; 77 mer) CGCGGAGUAGAGCAGUUUGGUAGCUCGCAAGGCUCAUAACCUUGAGGUCACGGGUUCAAAUCCUGUCUCCGCAACCA |  |  | capable to promote the growth and proliferation of cardiomyocytes | 
GCGGAUAUAGUCGAAUGGUAAAAUUUCUCUUUGCCAAGGAGAAGACGCGGGUUCGAUUCCCGCUAUCCGCCCCA (nucleic acid, expressed or natural sequence, tRNA isolated from Panax ginseng C; A. Mey; 74 mer) GCGGAUAUAGUCGAAUGGUAAAAUUUCUCUUUGCCAAGGAGAAGACGCGGGUUCGAUUCCCGCUAUCCGCCCCA | capable to promote the growth and proliferation of cardiomyocytes | significant cardioprotective effects in a dose-dependent manner | capable to promote the growth and proliferation of cardiomyocytes | 
